Test results reported in PMC4556617, “Experimental Evidence for a Revision in the Annotation of Putative Pyridoxamine 5'-Phosphate Oxidases P(N/M)P from Fungi” (PLoS ONE, 2015).

T1: Pdx3 (Saccharomyces cerevisiae, UniProt P38075)
T1 construct: full-length, synthetic gene in pET28a (NdeI/BamHI), N-terminal His-tag cut by thrombin; E. coli BL21 DE3 Rosetta; 27189 Da; homodimer
T1 sequence (P38075 1-228): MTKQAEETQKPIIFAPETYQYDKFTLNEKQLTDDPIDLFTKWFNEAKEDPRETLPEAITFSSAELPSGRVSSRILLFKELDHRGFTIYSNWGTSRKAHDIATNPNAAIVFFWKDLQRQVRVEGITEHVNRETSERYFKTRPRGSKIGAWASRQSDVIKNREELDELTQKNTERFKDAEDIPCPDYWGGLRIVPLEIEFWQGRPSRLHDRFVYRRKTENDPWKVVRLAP


Columns and labels:
Pdx3 = molecular target: T1, Pdx3; assay: FMN fluorescence quenching titration (Ex […] nm, Em […] nm); size-exclusion chromatography co-elution; assay type: binding; conditions: 1 uM FMN titrated with protein, 25 C, pH 7.4; protein as purified already carries FMN
[1] = molecular target: the molecule itself; assay: SEC; analytical size-exclusion chromatography, Superdex 75 3.3/300, 10 uM protein, 10 uL injected, buffer A (20 mM Tris, 150 mM NaCl, 1 mM DTT pH 7.4), tryptophan fluorescence; calibrated with transthyretin tetramers (54 kDa) and chymotrypsin monomers (25 kDa)

| Molecule | FMN fluorescence quenching titration (Ex 450 nm, Em 520 nm); size-exclusion chro (Pdx3) | stoichiometry N [1] |
| --- | --- | --- |
| Cc1cc2nc3c(=O)[nH]c(=O)nc-3n(C[C@H](O)[C@H](O)[C@H](O)COP(=O)(O)O)c2cc1C [FMN] | Pdx3 produced a clear quenching effect due to FMN binding |  |
| Ylr456w (natural protein, S. cerevisiae, UniProt Q06199 1-204, looked up, Ylr456w, product of the ORF YLR456W of S. cerevisiae (strain BY4741 cDNA), amplified with primers from the ATG to the stop codon, cloned NdeI/BamHI into pET28a; expected mass after thrombin digestion 23574 Da; A few residues of the vector probably remain at the N-terminus after thrombin cleavage (surmised); also called putative P(N/M)P oxidase; source: E. coli BL21 DE3 Rosetta, purified (His Trap …)) MKLNEQIPKDLLRLIKSSKYVHVATCSSNCIPSVSLMHYIFVSSAETFHKHEYSIEIDCNDYIIFTVFEKSVTFRNVMSNPNVALLFHDWITAKNLTLRKKSVHSKDDFSFVESESTKFNNFLRDLNQSELNQVSATINGIADIVNPNSEESTYYRRLLLTVNPDADIFILGEDTAIIKVNIQKIKVSDMENNTSTYGQTVQPV |  | 2 |
| Pdx3 (enzyme, S. cerevisiae, UniProt P38075 1-228, looked up, expected mass after thrombin digestion 27189 Da; A few residues of the vector probably remain after thrombin cleavage (surmised); also called P(N/M)P oxidase; pyridoxamine 5'-phosphate oxidase; source: E. coli BL21 DE3 Rosetta, purified (His Trap HP, thrombin digestion, Superdex 200 gel filtration); not shown: His-tag, N-terminal, cleaved) MTKQAEETQKPIIFAPETYQYDKFTLNEKQLTDDPIDLFTKWFNEAKEDPRETLPEAITFSSAELPSGRVSSRILLFKELDHRGFTIYSNWGTSRKAHDIATNPNAAIVFFWKDLQRQVRVEGITEHVNRETSERYFKTRPRGSKIGAWASRQSDVIKNREELDELTQKNTERFKDAEDIPCPDYWGGLRIVPLEIEFWQGRPSRLHDRFVYRRKTENDPWKVVRLAP |  | 2 |
| Ypr172w (natural protein, S. cerevisiae, UniProt Q06608 1-200, looked up, expected mass after thrombin digestion 22788 Da; A few residues of the vector probably remain after thrombin cleavage (surmised); also called putative P(N/M)P oxidase; source: E. coli BL21 DE3 Rosetta, purified (His Trap HP, thrombin digestion, Superdex 200 gel filtration); not shown: His-tag, N-terminal, cleaved) MAWTSTLPAHLLNLIKNSKYVHVATCSKDCIPSVALMNYIYVPGEKLFGQTDNKNDYIIFVSPQDTQKFYNIKENPKVALLFHDWIIANNLSVGKESISGTPTPTSIPHEEQRQSELLNLLQELNQAELNQMSASIGGETEIVNPESEESKYYKDLILKANPDAKAFIFEKNTAVVKVRIDNARVSNNENRTMFLSKGKS |  | 2 |
